Test results as given in CN115785274A (DONGGUAN PENGZHI BIOTECHNOLOGY CO LTD, dated 2023).

Target: T1, PG I蛋白(fitzgerald，30R-AP038) (UniProt P0DJD8 16-388)
T1 construct: Bought antigen; Pepsinogen I is a group of isozymogens (human genes PGA3, PGA4, PGA5); also called 胃蛋白酶原I; HPG I
Experiment: BLI, antibody captured on AMC sensor, PG I protein in a dilution series in PBST

T1 sequence (P0DJD8 16-388): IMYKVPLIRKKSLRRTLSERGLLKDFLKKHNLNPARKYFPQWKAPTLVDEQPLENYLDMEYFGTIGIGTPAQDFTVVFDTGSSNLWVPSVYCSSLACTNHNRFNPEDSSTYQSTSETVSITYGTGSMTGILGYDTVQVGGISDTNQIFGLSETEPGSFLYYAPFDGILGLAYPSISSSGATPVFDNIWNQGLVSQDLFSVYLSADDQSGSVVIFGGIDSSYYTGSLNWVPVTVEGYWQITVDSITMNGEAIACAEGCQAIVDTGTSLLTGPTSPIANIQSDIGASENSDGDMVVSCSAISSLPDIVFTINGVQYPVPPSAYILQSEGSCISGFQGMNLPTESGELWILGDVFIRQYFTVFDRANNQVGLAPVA

Question: 对照抗体 (antibody) was tested. Which Kd did it give?
Answer: The Kd was 0.271 nM.

Question: What about the koff of the same molecule?
Answer: Its koff is 0.000529 s⁻¹.

Question: And the kon?
Answer: The kon was 1.95e+06 M⁻¹ s⁻¹.

B1: Anti-HPG I 13A5单克隆抗体 (antibody, V domains shown)
VH: QVQLQQSGPELVRPGVSVKISCKGSGYTFTDHPMHWVKQSHAKSLEWIGVISTFSGHRNYNQKFKGKATMTVDKSSTTAYMELDRLTSEDSAIYYCARGDKSIYYGSYLSWGQGTLITVSA
VL: QIVLTQSPAIMSASPGEKVTMTCSASSSVSYMYWYQQKSGTSPKRWIYDTSKLTSGVPARFSGSGSGTSYSLTISSMETEDAATYFCQQWSSSPLTFGAGTKLELK
Question: What does the source list for B1?
Answer: Kd: 0.0275 nM; koff: 0.000536 s⁻¹; kon: 1.95e+07 M⁻¹ s⁻¹
